Measurements reported in patent US20050064507A1, “Determining kinase specificity” (priority 2003, published 2005).

Columns and labels:
[1] = target: LIMK-2 peptide … (SEQ ID NO:121) after phosphorylation by PKC-theta (human); experiment: pPKC Ab binding to biotinylated peptide on avidin-coated plate; signal after minus signal without PKC-theta
[2] = target: MLK3 peptide … (SEQ ID NO:76) after phosphorylation by PKC-theta (human); experiment: as above
[3] = target: LIMK-2 peptide … (SEQ ID NO:121) after phosphorylation by PKC-theta (human); experiment: pPKC Ab binding to biotinylated peptide on avidin-coated plate
[4] = target: LIMK-2 peptide … (SEQ ID NO:121) (human); experiment: as above
[5] = target: MLK3 peptide … (SEQ ID NO:76) (human); experiment: as above
[6] = target: MLK3 peptide … (SEQ ID NO:76) after phosphorylation by PKC-theta (human); experiment: as above
[7] = target: SHP-1 phosphopeptide MKNAHAKA-pS-RTSSKHKE (SEQ ID NO:289) (human); experiment: ELISA on phosphopeptides synthesized in microtiter wells; details: scale: normalized
[8] = target: SHP-1 phosphopeptide PWTFLVRE-pS-LSQPGDFV (SEQ ID NO:295) (human); experiment: as above; details: scale: normalized
[9] = target: SHP-1 phosphopeptide HGSFLARP-pS-RKNQGDFS (SEQ ID NO:300) (human); experiment: as above; details: scale: normalized
[10] = target: SHP-1 phosphopeptide HAKASRTS-pS-KHKEDVYE (SEQ ID NO:294) (human); experiment: as above; details: scale: normalized
[11] = target: SHP-1 phosphopeptide ADKEKSKG-pS-LKRK (SEQ ID NO:298) (human); experiment: as above; details: scale: normalized
[12] = target: SHP-1 phosphopeptide AHAKASRT-pS-SKHKEDVY (SEQ ID NO:291) (human); experiment: as above; details: scale: normalized
[13] = target: SHP-1 phosphopeptide PLNCSDPT-pS-ERWYHGHM (SEQ ID NO:297) (human); experiment: as above; details: scale: normalized
[14] = target: SHP-1 phosphopeptide LKGRGVHG-pS-FLARPSRK (SEQ ID NO:299) (human); experiment: as above; details: scale: normalized
[15] = target: SHP-1 phosphopeptide RVILQGRD-pS-NIPGSDYI (SEQ ID NO:290) (human); experiment: as above; details: scale: normalized
[16] = target: SHP-1 phosphopeptide PSEPGGVL-pS-FLDQINQR (SEQ ID NO:293) (human); experiment: as above; details: scale: normalized
[17] = target: SHP-1 phosphopeptide KNQGDFSL-pS-VRVGDQVT (SEQ ID NO:296) (human); experiment: as above; details: scale: normalized
[18] = target: SHP-1 phosphopeptide KKKLEVLQ-pS-QKGQESEY (SEQ ID NO:292) (human); experiment: as above; details: scale: normalized

Substance: phospho-PKC motif antibody (Phospho-(Ser) PKC Substrate Antibody, Cell Signaling Technology)
- pPKC Ab Signal amount dependent on PKC phosphorylation [1]: 1.11
- pPKC Ab Signal amount dependent on PKC phosphorylation [2]: 0.95
- pPKC Ab Signal on peptide after exposure to PKC-theta phosphorylation [3]: 1.13
- pPKC Ab Signal on peptide without exposure to PKC-theta [4]: 0.02
- pPKC Ab Signal on peptide without exposure to PKC-theta [5]: 0.07
- pPKC Ab Signal on peptide after exposure to PKC-theta phosphorylation [6]: 1.02
- Binding of pPKC antibody [7]: 18
- Binding of pPKC antibody [8]: 5
- Binding of pPKC antibody [9]: 39
- Binding of pPKC antibody [10]: 7
- Binding of pPKC antibody [11]: 100
- Binding of pPKC antibody [12]: 12
- Binding of pPKC antibody [13]: 0
- Binding of pPKC antibody [14]: 54
- Binding of pPKC antibody [15]: 13
- Binding of pPKC antibody [16]: 9
- Binding of pPKC antibody [17]: 3
- Binding of pPKC antibody [18]: 11
